± gives the uncertainty stated by the source.
Experiment: self-splicing fitness, log relative to wild type (ln ratio); higher = more splicing; Tetrahymena group I intron in knt gene, E. coli kanamycin selection, DiMSum; sequences stand for … in CUCUCU…GGAGGGAAAAGUUAUCAGGCAUGCACCUGGUAGCUAGUCUUUAAACCAAUAGAUUGCAUCGGUUUAAAAGGCAAGACCGUCAAAUUGCGGGAAAGGGGUCAACAGCCGUUCAGUACCAAGUCUCAGGGGAAACUUUGAGAUGGCCUUGCAAAGGGUAUGGUAAUAAGCUGACGGACAUGGUCCUAACCACGCAGCCAAGUCCUAAGUCAACAGAUCUUCUGUUGAUAUGGAUGCAGUUCACAGACUAAAUGUCGGUCGGGGAAGAUGUAUUCUUCUCAUAAGAUAUAGUCGGACCUCUCCUUAAUGGGAGCUAGCGGAUGAAGUGAUGCAACACUGGAGCCGCUGGGAACUAAUUUGUAUGCGAAAGUAUAUUGAUUAGUUUUGGAGUACUCGUGGUCG
How it was run: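 The eight P1ex-region nucleotides of an intron in the knt kanamycin-resistance gene on pET-22b(+) were all randomised and the library put into E. coli BL21(DE3). Six replicate transformations were grown overnight at 37°C or 30°C on LB agar with or without 25 μg/mL kanamycin, together with 100 μg/mL carbenicillin, 50 μM IPTG and 0.2% rhamnose. Colonies were pooled and amplicon-sequenced on an Illumina HiSeq 2500. Fitness from DiMSum is the error-weighted combination of wild-type-normalised replicate fold changes, kanamycin over none.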

Sequence: AGAGAGCAAUAUUACGUAUA
- self-splicing fitness (ln) (37 °C): -1.02 ± 0.32

Sequence: GGUCAGCAAUAUUACGUAUG
- self-splicing fitness (ln) (30 °C): -1.66 ± 0.085
- self-splicing fitness (ln) (37 °C): 0.0829 ± 0.1

Sequence: UUGUAGCAAUAUUACGUCAC
- self-splicing fitness (ln) (30 °C): -2.56 ± 0.39

Sequence: GCGGAGCAAUAUUACGAGUG
- self-splicing fitness (ln) (30 °C): -2.86 ± 0.34
- self-splicing fitness (ln) (37 °C): -2.71 ± 0.48

Sequence: AUAGAGCAAUAUUACGGUCC
- self-splicing fitness (ln) (30 °C): -2.61 ± 0.38

Sequence: CUAGAGCAAUAUUACGUCCG
- self-splicing fitness (ln) (30 °C): -0.472 ± 0.087
- self-splicing fitness (ln) (37 °C): -0.0677 ± 0.14

Sequence: UCCUAGCAAUAUUACGCCGA
- self-splicing fitness (ln) (30 °C): -0.215 ± 0.11
- self-splicing fitness (ln) (37 °C): 0.0045 ± 0.11

Sequence: GAGUAGCAAUAUUACGUGAA
- self-splicing fitness (ln) (30 °C): -2.5 ± 0.16
- self-splicing fitness (ln) (37 °C): -1.95 ± 0.15

Sequence: CCGCAGCAAUAUUACGACCU
- self-splicing fitness (ln) (30 °C): -3.36 ± 0.23
- self-splicing fitness (ln) (37 °C): -2.63 ± 0.29

Sequence: GCCGAGCAAUAUUACGUUAG
- self-splicing fitness (ln) (30 °C): -3.58 ± 0.17
- self-splicing fitness (ln) (37 °C): -2.65 ± 0.19

Sequence: CAGCAGCAAUAUUACGUGAC
- self-splicing fitness (ln) (30 °C): -3.41 ± 0.24
- self-splicing fitness (ln) (37 °C): -1.86 ± 0.19

Sequence: UAAUAGCAAUAUUACGACAA
- self-splicing fitness (ln) (30 °C): -2.23 ± 0.16
- self-splicing fitness (ln) (37 °C): -1.01 ± 0.14

Sequence: UACGAGCAAUAUUACGCUCG
- self-splicing fitness (ln) (37 °C): -1.74 ± 0.31

Sequence: UUGCAGCAAUAUUACGAGUG
- self-splicing fitness (ln) (30 °C): -1.61 ± 0.1
- self-splicing fitness (ln) (37 °C): -1.46 ± 0.13

Sequence: UUCGAGCAAUAUUACGGCUU
- self-splicing fitness (ln) (30 °C): -3.14 ± 0.18
- self-splicing fitness (ln) (37 °C): -2.65 ± 0.33

Sequence: UGGAAGCAAUAUUACGUCAU
- self-splicing fitness (ln) (30 °C): -2.99 ± 0.35
- self-splicing fitness (ln) (37 °C): -3.01 ± 0.3

Sequence: UGCGAGCAAUAUUACGGCUC
- self-splicing fitness (ln) (30 °C): -2.91 ± 0.31
- self-splicing fitness (ln) (37 °C): -3.21 ± 0.41

Sequence: CCCUAGCAAUAUUACGCGGU
- self-splicing fitness (ln) (30 °C): -3.75 ± 0.16
- self-splicing fitness (ln) (37 °C): -2.53 ± 0.18

Sequence: CCUAAGCAAUAUUACGCGUA
- self-splicing fitness (ln) (30 °C): -1.88 ± 0.25
- self-splicing fitness (ln) (37 °C): -2.19 ± 0.33

Sequence: UUGUAGCAAUAUUACGCGCU
- self-splicing fitness (ln) (30 °C): -2.05 ± 0.16
- self-splicing fitness (ln) (37 °C): -0.976 ± 0.11

Sequence: CCAGAGCAAUAUUACGGCUA
- self-splicing fitness (ln) (30 °C): -2.84 ± 0.2
- self-splicing fitness (ln) (37 °C): -2.94 ± 0.4

Sequence: UCGGAGCAAUAUUACGACUU
- self-splicing fitness (ln) (30 °C): -3.46 ± 0.22
- self-splicing fitness (ln) (37 °C): -2.48 ± 0.19

Sequence: GGUCAGCAAUAUUACGGAAA
- self-splicing fitness (ln) (30 °C): -1.22 ± 0.11
- self-splicing fitness (ln) (37 °C): -0.845 ± 0.11

Sequence: GCGAAGCAAUAUUACGGCAU
- self-splicing fitness (ln) (30 °C): -1.25 ± 0.099
- self-splicing fitness (ln) (37 °C): -0.00655 ± 0.089

Sequence: CCAUAGCAAUAUUACGUCUC
- self-splicing fitness (ln) (30 °C): -4.6 ± 0.28
- self-splicing fitness (ln) (37 °C): -3.05 ± 0.22

Sequence: AGCGAGCAAUAUUACGGUCU
- self-splicing fitness (ln) (30 °C): -1.42 ± 0.1
- self-splicing fitness (ln) (37 °C): -0.715 ± 0.15

Sequence: AAGUAGCAAUAUUACGCAGU
- self-splicing fitness (ln) (37 °C): -1.76 ± 0.19

Sequence: UGACAGCAAUAUUACGAGCC
- self-splicing fitness (ln) (30 °C): -3.37 ± 0.28
- self-splicing fitness (ln) (37 °C): -2.24 ± 0.38

Sequence: CCGCAGCAAUAUUACGCAGG
- self-splicing fitness (ln) (30 °C): -2.77 ± 0.11
- self-splicing fitness (ln) (37 °C): -2.93 ± 0.2

Sequence: CUGCAGCAAUAUUACGCUGG
- self-splicing fitness (ln) (30 °C): -3.66 ± 0.23
- self-splicing fitness (ln) (37 °C): -2.64 ± 0.25

Sequence: GCACAGCAAUAUUACGCCCU
- self-splicing fitness (ln) (30 °C): -0.527 ± 0.094
- self-splicing fitness (ln) (37 °C): 0.00502 ± 0.11

Sequence: GCAUAGCAAUAUUACGCUGG
- self-splicing fitness (ln) (37 °C): -2.15 ± 0.49

Sequence: CAAAAGCAAUAUUACGGUAA
- self-splicing fitness (ln) (30 °C): -1.91 ± 0.12
- self-splicing fitness (ln) (37 °C): -1.45 ± 0.15

Sequence: CUCAAGCAAUAUUACGCAAA
- self-splicing fitness (ln) (30 °C): -3.82 ± 0.31
- self-splicing fitness (ln) (37 °C): -2.47 ± 0.25

Sequence: CAGAAGCAAUAUUACGCAGU
- self-splicing fitness (ln) (30 °C): -2.53 ± 0.19
- self-splicing fitness (ln) (37 °C): -3.48 ± 0.23

Sequence: CCUCAGCAAUAUUACGGCCC
- self-splicing fitness (ln) (30 °C): -4.21 ± 0.39

Sequence: AUUAAGCAAUAUUACGUGUA
- self-splicing fitness (ln) (30 °C): -2.57 ± 0.14
- self-splicing fitness (ln) (37 °C): -1.66 ± 0.13

Sequence: CUUGAGCAAUAUUACGUAGC
- self-splicing fitness (ln) (30 °C): -3.2 ± 0.2
- self-splicing fitness (ln) (37 °C): -2.4 ± 0.29

Sequence: GAAAAGCAAUAUUACGCUAU
- self-splicing fitness (ln) (30 °C): -2.9 ± 0.21
- self-splicing fitness (ln) (37 °C): -0.854 ± 0.2

Sequence: AAAUAGCAAUAUUACGGGGC
- self-splicing fitness (ln) (30 °C): -3.72 ± 0.32
- self-splicing fitness (ln) (37 °C): -2.34 ± 0.29

Reference: the supplement of paper PMC7877785
